Target: hemagglutinin (HA) of A/PuertoRico/8/34 (PR/8, H1N1) influenza virus (influenza A virus A/PuertoRico/8/34 (H1N1)) (UniProt P03452)
Assay: cell-based or functional assay

Substance: EB peptide (entry blocker)
- EC50 of hemagglutination inhibition (PR/8): 2 µM
- EC50 of hemagglutination inhibition (PR/8, 64 HAU): 2.6 µM
- plaque reduction on MDCK cells (PR/8 pre-treated with peptide): 92%

— patent publication US20130190228A1
